Assay results reported in patent US20230226096A1 (Orna Therapeutics, Inc., priority 2020, published 2023).

B1: Cosavirus A SH1 (nucleic acid)
DNA: CCGTGCTTTACACGGTTTTTGAACCCCACACCGGCTGTTTGGCGCTTGCAGGACAGCAGGTTTATTTTCTTATGCTCTTTATTTCTAGCCAACAGGGTTCTATCCTGTTGGGCGGAGTGATACTCCCGTTCCTTCTTGGACAGATTGCCTCCACGATCTTTGTGGATCTCAAGGTGATCAAGTCACTGGTAAATAGAGCGAAGGTTGAGGAAACCTGAGGAATTTCCATGTGGTTTTGCCAGGAGTTGTAGCGATGCTGTGTGTGTGTGCGGATTTCCCCTCATGGCAACATGAGCCTCACAGGCCAAAAGCCCTGTCCGAAAGGACCCACACAGTGGAGCAATCCCAGCTCCCTCCTACAAAGCTTTGTGAGAATGAACTCACGTTTATTCTTCTTTATTCTCTGTTTACATCAGGCCCCAAAGATGTCCTGAAGGTACCTTGTGTATCTGGGCATGAGCACCATCAACTACCCGGACTTGCATTTCGGTGCAGACACATGTGGTTACCCAGCCCCTCTGCTTTGGCAGAGGGGCTTTTGCTCGCTCAGCACGAGATCTGATCAGGAGCCCTTCCCAGTGTGCTTTACACCTGGCGGGGGGTTAAAAATTGCCCAAGGCCTGGCAAAATAACCTAGGGGACTAGGTTTTCCTTTTATTAACAATGTCTGTCATT
modifications: Cosavirus A
B2: EMCV2 RD1338 (nucleic acid)
DNA: AAATACTGGTCGAAACCGCTTGGGATAAGACCGGGGTTTGTTAATGTCTCAATGTTATTCTCCACCCAATTGACGTCTTTTGTCAATTGGAGGGCAGTGAAACCTTGCCCTTGCTTCTTGCAGAGGATTCCCAGTGGTCTTTCCGCTCTCGACAAGGGAATTCATGATCCACCAAAAGTTGTGAAGAGAGCAGGTCCCATGGAAGCTTTCTGACGACTGATGATGACTGTAGCGACCCTTTGCAGGCAGCGGACCCCCCCACCTGGTGACAGGTGCCTCTGCGGCCAAAAGCCACGTGTTTAACAGACACCTGCAAAGGCGGCACAACCCCAGTGCCTCATCAAAAGTCTGATGACTGTGGAAATAGTCAACCGGCTTTTCTTAAGCAAATTTGGTGTCGGGGCTGAAGGATGCCCGGAAGGTACCACACTGGTTGTGATCTGATCCGGGGCCACAGTACATGTGCTTTACACATGTAGCTGCGGTTAAAAAACGTCTAGGCCCCCCGAACCACGGGGACGTGGTTTTCCTTTGAAAACCACGATTACAAT
B3: VHEV (nucleic acid)
DNA: AATTCCTTCTTCCTTTCTCCTTGGACCTCGGTCCCCCGGTCTAAGCCGCTCGGAATATGACAGGGTTATTTTCACCTCTTCTCTCTTCTACTTCATAGTGTTCTATACTATGAAAGGGTATGTGTCGCCCCTTCCTTCTTGGAGAACGTGCGTGGCGGTCTTTCCGTCTCTCGAAAAACGTGCGTGCGACATGCAGAGTAACGCAAAGAAAGCAGTTCTTGGTCTAGCTCTGGTGCCCACAAGAAAACAGCTGTAGCGACCACACAAAGGCAGCGGAAACCCCCTCCTGGTAACAGGAGCCTCTGCGGCCAAAAGCCACGTGGATAAGATCCACCTTTGTGTGCGGTGCAACCCCAGCACCCTGGTTTCTTGGTGACACCTTAGTGAACCCTCGAATGGCAATCTCAAGCGCCTCTGTAGGAAAGCCAAGAATGTCCAGGAGGTACCCCTTCCTCATGGAGGGATCTGACCTGGAGACACATCACACGTGCTATACACTTGTGCTTGTGTTTAAAAATTGTCACAGCTTTCCCAAACCAAGTGGTCTTGGTTTTCCCTTAACTTCGAAAAGTCACTATGGCCTGCAAACATGGATACCCAGACGTGTGCCCT
B4: TRV NGS910 (nucleic acid)
DNA: ATGCGACGTGGTTGGAGATTAAACCGACTCCGACGAAAGTGCTATCATGCCTCCCCGATTATGTGATGTTTTCTGCCCTGCTGGGCGGAGCATTCTCGGGTTGATACACCTTGAATCCTTCATCCTTGGACCTCAGGTCCCCCGGTCTAAGCCGCTTGGAATACGACAGGGTTATTTTCCAATCTTCTCCTTTCTACTTTCATGAGTCCTATTCATGAAAAGGGTCTGTGCTGCCCCTTCCTTCTTGGAGAATCTGCGCGGCGGTCTTTCCGTCTCTCGAAAAGCGCAGATGCAGCATGCTGGAACCGGTGAAGAAAACAGTTCTTTGTGGAAACTTAGAGCAGACATCGAAACAGCTGTAGTGACCTCACAGTAGCAGCGGAACCCCCTCCTGGTAACAGGAGCCTCTGCGGCCAAAAGCCCCGTGGATAAGATCCACTGCTGTGAGCGGTGCAACCCCAGCACCCTGGTTCGATGGTTGTTCTCTGTGGAACCAGAGAATGGTCTTTCTCAAGCCCTCCAGTAGAGAAGCCAAGAATGTCCTGAAGGTACCCCGCATGCGGGATCTGATCAGGAGACCAATCGTCAGTGCTTTACACTGGCGCTTTGGTTTAAAAACTGTCACAGCTTCTCCAAACCAAGTGGTCTTGGTTTTCACTTTTATCAAACTGTTTC
B5: REV A (nucleic acid, listed as Reticuloendotheliosis virus)
DNA: GGGGTCGCCGTCCTACACATTGTTGTGACGTGCGGCCCAGATTCGAATCTGTAATAAAAGCTTTTTCTTCTATATCCTCAGATTGGCAGTGAGAGGAGATTTTGTTCGTGGTGTTGGCTGGCCTACTGGGTGGGGTAGGGATCCGGACTGAATCCGTAGTATTTCGGTACAACATTTGGGGGCTCGTCCGGGATTCCTCCCCATCGGCAGAGGTGCCTACTGTTTCTTCGAACTCCGGCGCCGGTAAGTAAGTACTTGATTTTGGTACCTCGCGAGGGTTTGGGAGGATCGGAGTGGCGGGACGCTGCCGGGAAGCTCCACCTCCGCTCAGCAGGGGACGCCCTGGTCTGAGCTCTGTGGTATCTGATTGTTGTTGAACCGTCTCTAAGACGGTGATACTATAAGTCGTGGTTTGTGTGTTTGTTTGTTACCTTGTGTTTGTTCGTCACTTGTCGACAGCGCCCTGCGAATTGGTGTACCCACACCGCGCGGCTTGCGAATAATACTTTGGAGAGTCTTTTGCCTCCAGTGTCTTCCGTTTGTACTCGTCCTCCTCTCCCTCTCCGGCCGGGATGGG
B6: Cosavirus D1 (nucleic acid, listed as Cosavirus sp.)
DNA: CGTGCTTTACACGGTTTTTGAACCCCACACCGGCTGTTTGGCGCTTGCAGGACAGTAGGTATATTTTCTTTCATTTCTCTTTTCTAGCCGCGTAGGTTCTATCTACGCGGGCGGAGTGATACTCCCGCTCCTTCTTGGACAGGCGGCCTCCACGCTCTTTGTGGATCTTAAGGCTGCCAAGTCACTGGTGTTTGAAGTGAAGAATGGAGAGACACTAGGGCGTTTCATGTGGCTTTGCCAGGGATTGTAGCGATGCTGTGTGTGTGTGCGGATTTCCCCTCGTGGCGACACGAGCCTCACAGGCCAAAAGCCCTGTCCGAAAGGACCCACACAGTGGGGTTGCCCCGACCCCTCCCTTCAAAGCTTTGTGTAAACAAACTTTTGTTTAGACTTTCTTAAGCTTCTCTCACATCAGGCCCCAAAGATGTCCTGAAGGTACCCTGTGTATCTGAGGATGAGCACCACCAACTACCCGGACTTGTGGGACGTGTCCCACAGACGCATGTGGTATTCCAGCCCCCTCCTTTTGAGGAGGGGGCTTTTGCTCGCTCAGCACAGGATCTGATCAGGAGATTCATCTCTGGTGCTTTACACCAGAGCATGGATTTAAAAATTGCCCAAGGCCTGGCAAACAACCTAGGGGACTAGGTTTTCTCTATTTTAAAAGATGTCAAT
B7: EMCV1 AnrB-3741 (nucleic acid)
DNA: ATGTGGTCGAAGCCACTTGGAATAAGACCGGCGTGCGCTTGTCTATATGTTACTTCCACCACATTGCCGTCTTTTGGCAATGTGAGGGCCCGGAACCTGGCCCTGTCTTCTTGACGAACATTCCTAGGGGACTTTCCCCTCTCGCCAAAGGAATGTAAGGTCTGTTGAATGTCGTGAAGGAAGCAGTTCCTCTGGAAGCTTCTTGAAGACAAACAGCGTCTGTAGCGACCCTTTGCAGGCAGCGGAACCCCCCACCTGGTAACAGGTGCCTCTGCGGCCGAAAGCCACGTGTATAAGATACACCTGCAAAGGCGGCACAACCCCAGTGCCACGTTGTGCGTTGGATAGTTGTGGAAAGAGTCAAATGGCTTTCCCCAAGCGTATTCAACAAGGGGCTGAAGGATGCCCAGAAGGTACCCCACTGGTTGGGATCTGATCTGGGGCCTCGGTGCAGGTGCTTTACACCTGTTGAGTCGAGGTTAAAAAACGTCTAGGCCCCCCGAACCACGGGGACGTGGTTTTCCTAGAAAACCACTATGACAAT
B8: Cosavirus B1 (nucleic acid, listed as Cosavirus sp.)
DNA: CGTGCTTTACACGGTTTTTGAACCCCACACCGGCTGTTTGGCGCTTGCAGGACAGCAGGTTTATTTTCTTTTAACTCTCTCTTTCTAGCCACACACGATCTATGTGTGTGGGCGGAGTGATACTCCCGTTCCTTCTTGGACAGGCGGCCTCCACGCCCTTTGTGGATCTTAAGGCTACCAAGTCACTGGTGTTGGAAAGTGAAGAGAAAGGAGTTCCTTGGGAACTACATGTGGCATTGACAGAGGTTGTAGCGATGCTGTGTGTGTGTGCGGATTACCCCCGTGGCGACACGGACCCCACAGGCCAAAAGCCCTGTCCGAAAGGACCCACACAGTGGAGCAACCCCAGCTCCCCTCTTCAATGTTTTGTGTTAGCAACCTTGGTATTATTTTCTCTCAAGCTTCCAATACACCGGGCCCCAAAGATGTCCTGAAGGTACCCCGTGTATCTGAGGATGAGCACCATCAACTACCCGGACTTGTTCTTTCGAGAACAGACGCATGTGGTAACCCAGCCCCGATCCTAAGGGGTCGGGGCTTTTGCTCACTCAGCACAGGATCTGATCAGGAGACCTCCCCCCCCTGCTTTACAGGGGGCGGGGGTTTAAAAATTGCCCAAGGCCTGGCAAATAACCTAGGGGACTAGGTTTTCCTTTTTATTTTAAAGTTGTCAAT
B9: SAV P-113 (nucleic acid)
DNA: GGAGATCTAAGTCAACCGACTCCGACGAAACTACCATCATGCCTCCCCGATTATGTGATGCTTTCTGCCCTGCTGGGTGGAGCATCCTCGGGTTGAGAAAACCTTCTTCCTTTTTCCTTGGACCCCGGTCCCCCGGTCTAAGCCGCTTGGAATAAGACAGGGTTATCTTCACCTCTTCCTTCTTCTACTTCATAGTGTTCTATACTATGAAAGGGTATGTGTCGCCCCTTCCTTCTTTGGAGAACACGCGCGGCGGTCTTTCCGTCTCTCGAAAAGCGCGTGTGCGACATGCAGAGAACCGTGAAGAAAGCAGTTTGCGGACTAGCTTTAGTGCCCACAAGAAAACAGCTGTAGCGACCACACAAAGGCAGCGGACCCCCCCTCCTGGCAACAGGAGCCTCTGCGGCCAAAAGCCACGTGGATAAGATCCACCTTTGTGTGCGGCACAACCCCAGTGCCCTGGTTTCTTGGTGACACTTCAGTGAAAACGCAAATGGCGATCTGAAGCGCCTCTGTAGGAAAGCCAAGAATGTCCAGGAGGTACCCCTTCCCTCGGGAAGGGATCTGACCTGGAGACACATCACATGTGCTTTACACCTGTGCTTGTGTTTAAAAATTGTCACAGCTTTCCCAAACCAAGTGGTCTTGGTTTTCACTCTTTAAACTGATTTCACT

The molecules below were run on HEK293 cells. Conditions: luminescence from secreted Gluc in supernatant 24 hours after transfection of HEK293 cells; circular RNA encoding Gluc with the named IRES (UTR truncated to 675 nt).
Format: cell-based, human

| Molecule | Expression |
| --- | --- |
| B1 | 2.16E+06 |
| B2 | 1.97E+06 |
| B3 | 1.74E+08 |
| B4 | 3.84E+07 |
| B5 | 9.44E+04 |
| B6 | 2.11E+06 |
| B7 | 2.55E+06 |
| B8 | 1.91E+06 |
| B9 | 4.37E+07 |
